Laboratory results reported in patent publication US20200255474.

B1: recombinant TTK (protein)
chain: MESEDLSGRELTIDSIMNKVRDIKNKFKNEDLTDELSLNKISADTTDNSGTVNQIMMMANNPEDWLSLLLKLEKNSVPLSDALLNKLIGRYSQAIEALPPDKYGQNESFARIQVRFAELKAIQEPDDARDYFQMARANCKKFAFVHISFAQFELSQGNVKKSKQLLQKAVERGAVPLEMLEIALRNLNLQKKQLLSEEEKKNLSASTVLTAQESFSGSLGHLQNRNNSCDSRGQTTKARFLYGENMPPQDAEIGYRNSLRQTNKTKQSCPFGRVPVNLLNSPDCDVKTDDSVVPCFMKRQTSRSECRDLVVPGSKPSGNDSCELRNLKSVQNSHFKEPLVSDEKSSELIITDSITLKNKTESSLLAKLEETKEYQEPEVPESNQKQWQSKRKSECINQNPAASSNHWQIPELARKVNTEQKHTTFEQPVFSVSKQSPPISTSKWFDPKSICKTPSSNTLDDYMSCFRTPVVKNDFPPACQLSTPYGQPACFQQQQHQILATPLQNLQVLASSSANECISVKGRIYSILKQIGSGGSSKVFQVLNEKKQIYAIKYVNLEEADNQTLDSYRNEIAYLNKLQQHSDKIIRLYDYEITDQYIYMVMECGNIDLNSWLKKKKSIDPWERKSYWKNMLEAVHTIHQHGIVHSDLKPANFLIVDGMLKLIDFGIANQMQPDTTSVVKDSQVGTVNYMPPEAIKDMSSSRENGKSKSKISPKSDVWSLGCILYYMTYGKTPFQQIINQISKLHAIIDPNHEIEFPDIPEKDLQDVLKCCLKRDPKQRISIPELLAHPYVQIQTHPVNQMAKGTTEEMKYVLGQLVGLNSPNSILKAAKTLYEHYSGGESHNSSSSKTFEKKRGKK
B2: recombinant MK5 (protein)
chain: MSEESDMDKAIKETSILEEYSINWTQKLGAGISGPVRVCVKKSTQERFALKILLDRPKARNEVRLHMMCATHPNIVQIIEVFANSVQFPHESSPRARLLIVMEMMEGGELFHRISQHRHFTEKQASQVTKQIALALRHCHLLNIAHRDLKPENLLFKDNSLDAPVKLCDFGFAKIDQGDLMTPQFTPYYVAPQVLEAQRRHQKEKSGIIPTSPTPYTYNKSCDLWSLGVIIYVMLCGYPPFYSKHHSRTIPKDMRRKIMTGSFEFPEEEWSQISEMAKDVVRKLLKVKPEERLTIEGVLDHPWLNSTEALDNVLPSAQLMMDKAVVAGIQQAHAEQLANMRIQDLKVSLKPLHSVNNPILRKRKLLGTKPKDSVYIHDHENGAEDSNVALEKLRDVIAQCILPQAGKGENEDEKLNEVMQEAWKYNRECKLLRDTLQSFSWNGRGFTDKVDRLKLAEIVKQVIEEQTTSHESQ

Target: recombinant PHB2
Sequence (chain, as listed by the source): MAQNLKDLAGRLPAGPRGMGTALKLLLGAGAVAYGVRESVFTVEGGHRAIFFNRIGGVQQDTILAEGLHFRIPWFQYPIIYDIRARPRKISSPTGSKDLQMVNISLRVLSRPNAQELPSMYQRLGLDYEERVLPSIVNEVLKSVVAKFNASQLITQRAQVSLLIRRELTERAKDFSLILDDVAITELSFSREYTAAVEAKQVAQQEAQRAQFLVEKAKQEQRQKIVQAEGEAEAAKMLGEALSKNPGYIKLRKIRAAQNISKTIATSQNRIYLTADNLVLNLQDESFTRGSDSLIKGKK

Protein | phosphorylation of PHB2 (Phos-tag SDS-PAGE), molar ratio PHB2:TTK=1:2 or greater | phosphorylation of PHB2 (Phos-tag SDS-PAGE), molar ratio TTK:PHB2 1:1 | phosphorylation of PHB2 (Phos-tag SDS-PAGE), molar ratio PHB2:MK5=1:0.25 | phosphorylation of PHB2 (Phos-tag SDS-PAGE), molar ratio PHB2:MK=1:2 or more
B1 | a band for 75% phosphorylation was clearly detected | 28% phosphorylation |  | 
B2 |  |  | 6.5% phosphorylation | a band for 75% phosphorylation was detected
